Reference: patent publication US20160185865A1

Biological target: human CC chemokine receptor 4 (CCR4) (human) (UniProt P51679)
Test: binding curve of FIG. 20B; cells not given

Sequence of human CC chemokine receptor 4 (CCR4) (human) (P51679 whole entry): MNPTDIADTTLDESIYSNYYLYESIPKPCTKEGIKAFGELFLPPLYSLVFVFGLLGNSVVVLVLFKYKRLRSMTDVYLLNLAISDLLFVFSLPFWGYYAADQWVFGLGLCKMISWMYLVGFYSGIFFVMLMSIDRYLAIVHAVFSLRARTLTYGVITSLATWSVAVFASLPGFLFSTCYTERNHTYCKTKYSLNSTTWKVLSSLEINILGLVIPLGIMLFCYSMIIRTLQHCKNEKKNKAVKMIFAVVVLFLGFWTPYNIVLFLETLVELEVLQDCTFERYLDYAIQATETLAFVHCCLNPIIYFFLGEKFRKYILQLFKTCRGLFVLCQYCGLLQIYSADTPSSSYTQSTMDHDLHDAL

EC50: 5.07 nM
B1: KM2760 (anti-CCR4 chimeric antibody) (antibody, from another filing, V domains shown)
VH: EVQLVESGGDLMKPGGSLKISCAASGFIFSNYGMSWVRQTPDMRLEWVATISSASTYSYYPDSVKGRFTISRDNAENSLYLQMNSLRSEDTGIYYCGRHSDGNFAFGYWGRGTLVTVSA
VL: DVLMTQTPLSLPVSLGDQASISCRSSRNIVHINGDTYLEWYLQRPGQSPKLLIYKVSNRFSGVPDRFSGSGSGTDFTLKISRVEAEDLGVYYCFQGSLLPWTFGGGTRLEIRR
